Laboratory results as given in patent publication CN115558029A (LILING BIOLOGICAL PHARMACEUTICAL SUZHOU CO LTD, dated 2023).

B1: 抗PD-1/PSCK9-2 (bispecific antibody, human IgG4 S228P, kappa)
heavy: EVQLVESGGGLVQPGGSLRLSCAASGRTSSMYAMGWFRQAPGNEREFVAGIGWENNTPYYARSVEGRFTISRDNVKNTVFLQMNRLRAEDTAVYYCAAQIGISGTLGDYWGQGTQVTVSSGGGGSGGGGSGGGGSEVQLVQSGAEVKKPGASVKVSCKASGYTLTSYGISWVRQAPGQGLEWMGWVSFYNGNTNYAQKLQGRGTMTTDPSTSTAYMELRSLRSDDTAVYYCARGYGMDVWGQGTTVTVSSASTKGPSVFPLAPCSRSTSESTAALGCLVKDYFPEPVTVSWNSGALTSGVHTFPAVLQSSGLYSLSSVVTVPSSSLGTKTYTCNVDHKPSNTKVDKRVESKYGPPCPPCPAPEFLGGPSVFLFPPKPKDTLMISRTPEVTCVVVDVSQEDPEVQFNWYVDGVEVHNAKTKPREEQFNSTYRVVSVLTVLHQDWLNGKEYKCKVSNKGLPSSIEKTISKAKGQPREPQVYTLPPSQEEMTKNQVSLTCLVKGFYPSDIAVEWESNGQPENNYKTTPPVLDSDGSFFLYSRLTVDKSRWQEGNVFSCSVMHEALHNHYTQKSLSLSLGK
light: ESALTQPASVSGSPGQSITISCTGTSSDVGGYNSVSWYQQHPGKAPKLMIYEVSNRPSGVSNRFSGSKSGNTASLTISGLQAEDEADYYCNSYTSTSMVFGGGTKLTVLRTVAAPSVFIFPPSDEQLKSGTASVVCLLNNFYPREAKVQWKVDNALQSGNSQESVTEQDSKDSTYSLSSTLTLSKADYEKHKVYACEVTHQGLSSPVTKSFNRGEC
notes: also called antiPD-1/PSCK9-2; 抗PD-1/PCSK9-2
B2: 抗PD-1/IL-8-2 (bispecific antibody, human IgG4 S228P, kappa)
heavy: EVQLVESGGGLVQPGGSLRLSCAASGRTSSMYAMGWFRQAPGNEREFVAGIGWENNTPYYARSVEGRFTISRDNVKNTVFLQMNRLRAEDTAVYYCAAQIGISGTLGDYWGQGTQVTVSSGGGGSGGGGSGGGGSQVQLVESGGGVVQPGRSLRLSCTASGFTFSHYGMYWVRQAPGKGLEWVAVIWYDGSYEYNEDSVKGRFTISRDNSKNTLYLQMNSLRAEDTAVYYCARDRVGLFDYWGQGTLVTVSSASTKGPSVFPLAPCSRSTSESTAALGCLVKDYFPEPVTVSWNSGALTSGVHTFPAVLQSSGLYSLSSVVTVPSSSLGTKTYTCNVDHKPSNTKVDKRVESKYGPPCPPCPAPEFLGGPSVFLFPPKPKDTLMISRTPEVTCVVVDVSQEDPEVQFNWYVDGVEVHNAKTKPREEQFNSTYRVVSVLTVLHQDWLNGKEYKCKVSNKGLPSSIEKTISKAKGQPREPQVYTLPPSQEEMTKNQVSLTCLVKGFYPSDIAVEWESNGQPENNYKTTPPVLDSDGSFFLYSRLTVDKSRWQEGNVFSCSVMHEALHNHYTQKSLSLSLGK
light: EIVLTQSPGTLSLSPGERATLSCRASQSISSSYLAWYQQKPGQAPRLLIYGPSSRATGIPDRFSGSGSGTDFTLTISRLEPEDFAVYYCQQYAGSLTFGPGTKVDIKRTVAAPSVFIFPPSDEQLKSGTASVVCLLNNFYPREAKVQWKVDNALQSGNSQESVTEQDSKDSTYSLSSTLTLSKADYEKHKVYACEVTHQGLSSPVTKSFNRGEC
B3: 抗PD-1/IL-8-1 (bispecific antibody, human IgG4 S228P, kappa)
heavy: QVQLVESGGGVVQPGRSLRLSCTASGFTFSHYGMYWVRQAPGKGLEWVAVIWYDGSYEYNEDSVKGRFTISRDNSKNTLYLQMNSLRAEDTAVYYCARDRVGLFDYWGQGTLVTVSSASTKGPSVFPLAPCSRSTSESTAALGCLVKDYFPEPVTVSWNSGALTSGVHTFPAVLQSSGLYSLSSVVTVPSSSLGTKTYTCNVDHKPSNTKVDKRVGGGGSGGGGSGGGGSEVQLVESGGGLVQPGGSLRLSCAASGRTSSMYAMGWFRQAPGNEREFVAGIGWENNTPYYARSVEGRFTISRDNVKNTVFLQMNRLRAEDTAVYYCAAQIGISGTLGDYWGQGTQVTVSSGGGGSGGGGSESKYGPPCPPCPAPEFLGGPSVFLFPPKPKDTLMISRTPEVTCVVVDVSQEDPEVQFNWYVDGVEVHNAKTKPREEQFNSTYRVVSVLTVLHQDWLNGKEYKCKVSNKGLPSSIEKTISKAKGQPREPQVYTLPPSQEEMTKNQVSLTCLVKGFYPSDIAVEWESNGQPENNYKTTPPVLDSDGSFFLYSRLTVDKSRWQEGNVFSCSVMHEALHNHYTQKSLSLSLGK
light: EIVLTQSPGTLSLSPGERATLSCRASQSISSSYLAWYQQKPGQAPRLLIYGPSSRATGIPDRFSGSGSGTDFTLTISRLEPEDFAVYYCQQYAGSLTFGPGTKVDIKRTVAAPSVFIFPPSDEQLKSGTASVVCLLNNFYPREAKVQWKVDNALQSGNSQESVTEQDSKDSTYSLSSTLTLSKADYEKHKVYACEVTHQGLSSPVTKSFNRGEC
notes: also called antiPD-1/IL-8-1
B4: 抗PD-1/TGF-β-1 (bispecific antibody, human IgG4 S228P, kappa)
heavy: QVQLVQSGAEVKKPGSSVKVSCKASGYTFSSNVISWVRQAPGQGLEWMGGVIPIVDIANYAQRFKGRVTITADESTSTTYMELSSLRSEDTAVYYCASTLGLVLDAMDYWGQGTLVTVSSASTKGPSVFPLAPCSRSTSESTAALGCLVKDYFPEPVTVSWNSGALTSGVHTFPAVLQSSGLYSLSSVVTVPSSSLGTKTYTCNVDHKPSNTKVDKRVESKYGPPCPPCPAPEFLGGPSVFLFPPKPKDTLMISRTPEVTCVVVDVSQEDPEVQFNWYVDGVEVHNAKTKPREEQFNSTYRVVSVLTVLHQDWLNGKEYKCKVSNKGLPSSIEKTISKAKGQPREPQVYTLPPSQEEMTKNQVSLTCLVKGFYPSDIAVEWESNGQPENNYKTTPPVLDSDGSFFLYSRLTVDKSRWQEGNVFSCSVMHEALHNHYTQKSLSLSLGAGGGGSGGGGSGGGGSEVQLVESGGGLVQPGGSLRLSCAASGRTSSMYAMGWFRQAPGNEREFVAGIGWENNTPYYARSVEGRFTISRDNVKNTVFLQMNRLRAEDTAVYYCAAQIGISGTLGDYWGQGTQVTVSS
light: ETVLTQSPGTLSLSPGERATLSCRASQSLGSSYLAWYQQKPGQAPRLLIYGASSRAPGIPDRFSGSGSGTDFTLTISRLEPEDFAVYYCQQYADSPITFGQGTRLEIKRTVAAPSVFIFPPSDEQLKSGTASVVCLLNNFYPREAKVQWKVDNALQSGNSQESVTEQDSKDSTYSLSSTLTLSKADYEKHKVYACEVTHQGLSSPVTKSFNRGEC
notes: also called antiPD-1/TGF-β-1
B5: 抗PD-1/TGF-β-3 (bispecific antibody, human IgG4 S228P, kappa)
heavy: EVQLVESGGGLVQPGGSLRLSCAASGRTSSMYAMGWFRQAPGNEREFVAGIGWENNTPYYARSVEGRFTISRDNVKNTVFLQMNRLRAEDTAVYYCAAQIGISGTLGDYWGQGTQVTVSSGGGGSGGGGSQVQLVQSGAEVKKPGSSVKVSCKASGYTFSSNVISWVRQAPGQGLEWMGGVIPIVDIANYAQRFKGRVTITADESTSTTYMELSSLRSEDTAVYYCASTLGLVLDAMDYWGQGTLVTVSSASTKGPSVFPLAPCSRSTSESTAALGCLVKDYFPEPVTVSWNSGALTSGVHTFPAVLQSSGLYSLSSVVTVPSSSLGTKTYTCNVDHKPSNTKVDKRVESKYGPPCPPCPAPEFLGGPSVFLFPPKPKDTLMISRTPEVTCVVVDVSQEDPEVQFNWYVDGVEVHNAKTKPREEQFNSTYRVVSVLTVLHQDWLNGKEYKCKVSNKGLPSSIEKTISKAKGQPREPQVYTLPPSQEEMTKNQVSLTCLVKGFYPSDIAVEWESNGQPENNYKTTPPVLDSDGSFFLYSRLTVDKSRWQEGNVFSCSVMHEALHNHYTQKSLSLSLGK
light: ETVLTQSPGTLSLSPGERATLSCRASQSLGSSYLAWYQQKPGQAPRLLIYGASSRAPGIPDRFSGSGSGTDFTLTISRLEPEDFAVYYCQQYADSPITFGQGTRLEIKRTVAAPSVFIFPPSDEQLKSGTASVVCLLNNFYPREAKVQWKVDNALQSGNSQESVTEQDSKDSTYSLSSTLTLSKADYEKHKVYACEVTHQGLSSPVTKSFNRGEC
notes: also called antiPD-1/TGF-β-3
B6: 抗PD-1/TGF-β-2 (bispecific antibody, human IgG4 S228P, kappa)
heavy: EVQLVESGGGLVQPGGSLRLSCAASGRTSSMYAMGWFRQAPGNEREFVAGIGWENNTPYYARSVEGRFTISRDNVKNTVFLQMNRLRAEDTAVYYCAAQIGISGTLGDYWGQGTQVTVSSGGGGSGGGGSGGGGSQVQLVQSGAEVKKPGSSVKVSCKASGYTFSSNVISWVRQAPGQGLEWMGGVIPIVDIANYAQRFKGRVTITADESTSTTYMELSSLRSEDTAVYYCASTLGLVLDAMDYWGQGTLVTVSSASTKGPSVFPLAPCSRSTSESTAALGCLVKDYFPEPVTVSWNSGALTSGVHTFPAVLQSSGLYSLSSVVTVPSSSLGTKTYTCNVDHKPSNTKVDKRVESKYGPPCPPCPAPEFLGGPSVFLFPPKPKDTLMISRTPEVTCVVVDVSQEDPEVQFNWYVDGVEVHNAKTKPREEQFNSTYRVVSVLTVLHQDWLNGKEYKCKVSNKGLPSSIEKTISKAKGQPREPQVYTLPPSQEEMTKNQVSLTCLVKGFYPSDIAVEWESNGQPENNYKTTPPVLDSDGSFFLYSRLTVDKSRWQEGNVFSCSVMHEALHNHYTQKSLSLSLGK
light: ETVLTQSPGTLSLSPGERATLSCRASQSLGSSYLAWYQQKPGQAPRLLIYGASSRAPGIPDRFSGSGSGTDFTLTISRLEPEDFAVYYCQQYADSPITFGQGTRLEIKRTVAAPSVFIFPPSDEQLKSGTASVVCLLNNFYPREAKVQWKVDNALQSGNSQESVTEQDSKDSTYSLSSTLTLSKADYEKHKVYACEVTHQGLSSPVTKSFNRGEC
notes: also called antiPD-1/TGF-β-2

What was measured:
[1] = target: PD-1 on Jurkat/PD-1细胞(Promega) (UniProt Q15116 25-288, limits assumed); assay: cell-based or functional assay
[2] = target: T1, 人PD-1蛋白(北京百普赛斯，货号PD1-H5221) (human, UniProt Q15116 25-167); assay: binding ELISA on coated PD-1 protein
T1 construct: Bought recombinant protein coated on the ELISA plate; also called PD-1抗原

| Binder | EC50, PD-1报告基因法 [1] [µg/mL] | EC50 [2] [µg/mL] | binding result [2] |
| --- | --- | --- | --- |
| B1 | 4 | 0.0641 |  |
| B2 | 1.3 |  |  |
| B3 |  |  | binds |
| B4 | 1.7 | 0.17 |  |
| B5 |  |  | binds |
| B6 |  |  | binds |
